For data set [1], the system named is vector DNA (ITR+cargo, ITR, HIV probes) in human graft. In words: ddPCR of viral vector copies per human genome in long-term human xenografts. It counts as in vivo, NSG mice. The conditions noted are these: AAVS1-edited HSPCs, AAV template. The text has this:
Since short-read sequencing of the edited locus and genome-wide IS identification may underestimate the overall frequency of trapping events, we performed ddPCR analyses to get an independent genome-wide quantification of AAV genome trapping events. […] On the contrary, we detected only background noise signal when probing for the AAV plasmid contaminants in the human long-term graft (FIG. 6i). […] Whether integration of AAV DNA occurs mostly as individual elements in a sizable fraction of cells treated for editing or as concatemers in only a small fraction of them cannot be determined by this analysis. Since ITR fragments are not detected by the ITR+cargo assay we performed ddPCR also with the ITR probe on PB samples of mice from FIG. 5g and found equal or higher signal in most mice (FIG. 51).
gDNA was isolated with QIAamp DNA Micro Kit from DNAse-treated in vitro culture cells pellet and in vivo samples, or with QuickExtract (Epicentre) from single colonies according to the manufacturer's instructions. For ddPCR analyses, 5-50 ng of gDNA for in vitro/vivo samples and 2 μl of gDNA for single colonies were analyzed using the QX200 Droplet Digital PCR System according to the manufacturer's instructions. […]

Data set [2] concerns AAVS1 locus. The format is in vivo, human xenograft. The note with it: in presence and absence of Ad5-E4orf6/7; 65 samples of published experiments. As for the experimental part:
PCR amplicons for individual samples were generated by nested PCR and starting from >50-100 ng of purified gDNA. The first PCR step was performed with GoTaq G2 DNA Polymerase (Promega) according to manufacturer instruction using the following amplification protocol: 95° C.×5′min, (95° C.×0.5 min, 60° C.×0.5 min, 72° C.×[…])×20 cycles, 72° C.×5 min. The second PCR step was performed with GoTaq G2 DNA Polymerase (Promega) according to manufacturer instruction using 5 μl of the first-step PCR product and the following amplification protocol: 95° C.×5 min, (95° C.×0.5 min, 60° C.×0.5 min, 72° C.×0.3 min)×20 cycles, 72° C.×5 min. […] Amplicons concentration and quality was assessed by QuantiFluor ONE dsDNA system and 4200 Tapestation System (Agilent). […]
Sequencing data were analyzed with CRISPResso2, which enables detection and quantification of insertions, mutations, and deletions in reads from gene editing experiments. In details, for each sample, input NGS reads were trimmed using the Trimmomatic software (http://www.usadellab.org/cms/?page=trimmomatic) based on the phred33 score to get rid of low-quality positions (score <30) and to remove Illumina adapters, keeping only trimmed sequences longer than 100 bp (CRISPResso2 options:—trim_sequences—trimmomatic_command trimmomatic—trimmomatic_options_string ‘[…]: TruSeq3-PE-2.fa: 2:30:10 MINLEN: 100’). […]

B1: GSE56: p53 dominant negative peptide (SEQ ID NO: 3), delivered as in vitro transcribed mRNA (nucleic acid)
DNA: ATGGATGGATGGTGTCCTGGGAGAGACCGTCGGACAGAGGAAGAAAATTTCCGCAAAAAAGAAGAGCATTGCCCGGAGCTGCCCCCAGGGAGTGCAAAGAGAGCACTGCCCACCAGCACAAGCTCCTCTCCCCAGCAAAAGAAAAAACCACTCGATGGAGAATATTTCACCCTTAAGATCCGTGGGCGTGAGCGCTTCGAGATGTTCCGAGAGCTGAATGAGGCCTTGGAATTAAAGGATGCCCGTGCTGCCGAGGAGTCAGGAGACAGCAGGGCTCACTCCAGCTACCCGAAGATAGTTAGTTAG
modifications: in vitro transcribed mRNA; protein SEQ ID NO: 3
On to B1, for which the “ITR+cargo copies in long-term xenograft in presence of editing enhancers” value in data set [1] was “more copies”. Besides, the “frequency and number of unique NHEJ-edited alleles in the human graft” value in data set [2] is given as “higher”.

B2: Ad5-E4orf6/7: adenovirus serotype 5 protein E4orf6/7 (SEQ ID No. 27), delivered as in vitro transcribed mRNA (nucleic acid)
DNA: ATGACCACCAGCGGCGTGCCCTTCGGCATGACACTCAGACCTACCAGAAGCCGGCTGAGCAGAAGAACCCCTTACAGCAGAGACAGGCTGCCTCCATTCGAGACAGAGACACGGGCCACCATCCTGGAAGATCACCCTCTGCTGCCCGAGTGTAACACCCTGACCATGCACAACGCCTGGACAAGCCCATCTCCTCCAGTGAAACAGCCCCAAGTGGGACAGCAGCCTGTTGCTCAGCAGCTGGACAGCGACATGAACCTGTCTGAACTGCCCGGCGAGTTCATCAACATCACCGACGAGAGACTGGCCCGGCAAGAGACAGTGTGGAACATCACCCCTAAGAACATGAGCGTGACCCACGACATGATGCTGTTCAAGGCCAGCAGAGGCGAGCGGACAGTGTACAGCGTTTGTTGGGAAGGCGGCGGACGGCTGAATACCAGAGTGCTGTAA
modifications: in vitro transcribed mRNA
As to B2, the “ITR+cargo copies in long-term xenograft in presence of editing enhancers” value in data set [1] is “more copies”.

The record behind these values is patent US20250288617A1, “Gene Therapy” (priority 2022, published 2025).
